Test results as given in JP2008194054A (dated 2008).

T1: 精製連鎖球菌抗原(SA)I/II (Streptococcus mutans, UniProt P23504 39-1532)
T1 construct: Purified antigen; also called 固定化精製連鎖球菌抗原
T1 sequence (looked up): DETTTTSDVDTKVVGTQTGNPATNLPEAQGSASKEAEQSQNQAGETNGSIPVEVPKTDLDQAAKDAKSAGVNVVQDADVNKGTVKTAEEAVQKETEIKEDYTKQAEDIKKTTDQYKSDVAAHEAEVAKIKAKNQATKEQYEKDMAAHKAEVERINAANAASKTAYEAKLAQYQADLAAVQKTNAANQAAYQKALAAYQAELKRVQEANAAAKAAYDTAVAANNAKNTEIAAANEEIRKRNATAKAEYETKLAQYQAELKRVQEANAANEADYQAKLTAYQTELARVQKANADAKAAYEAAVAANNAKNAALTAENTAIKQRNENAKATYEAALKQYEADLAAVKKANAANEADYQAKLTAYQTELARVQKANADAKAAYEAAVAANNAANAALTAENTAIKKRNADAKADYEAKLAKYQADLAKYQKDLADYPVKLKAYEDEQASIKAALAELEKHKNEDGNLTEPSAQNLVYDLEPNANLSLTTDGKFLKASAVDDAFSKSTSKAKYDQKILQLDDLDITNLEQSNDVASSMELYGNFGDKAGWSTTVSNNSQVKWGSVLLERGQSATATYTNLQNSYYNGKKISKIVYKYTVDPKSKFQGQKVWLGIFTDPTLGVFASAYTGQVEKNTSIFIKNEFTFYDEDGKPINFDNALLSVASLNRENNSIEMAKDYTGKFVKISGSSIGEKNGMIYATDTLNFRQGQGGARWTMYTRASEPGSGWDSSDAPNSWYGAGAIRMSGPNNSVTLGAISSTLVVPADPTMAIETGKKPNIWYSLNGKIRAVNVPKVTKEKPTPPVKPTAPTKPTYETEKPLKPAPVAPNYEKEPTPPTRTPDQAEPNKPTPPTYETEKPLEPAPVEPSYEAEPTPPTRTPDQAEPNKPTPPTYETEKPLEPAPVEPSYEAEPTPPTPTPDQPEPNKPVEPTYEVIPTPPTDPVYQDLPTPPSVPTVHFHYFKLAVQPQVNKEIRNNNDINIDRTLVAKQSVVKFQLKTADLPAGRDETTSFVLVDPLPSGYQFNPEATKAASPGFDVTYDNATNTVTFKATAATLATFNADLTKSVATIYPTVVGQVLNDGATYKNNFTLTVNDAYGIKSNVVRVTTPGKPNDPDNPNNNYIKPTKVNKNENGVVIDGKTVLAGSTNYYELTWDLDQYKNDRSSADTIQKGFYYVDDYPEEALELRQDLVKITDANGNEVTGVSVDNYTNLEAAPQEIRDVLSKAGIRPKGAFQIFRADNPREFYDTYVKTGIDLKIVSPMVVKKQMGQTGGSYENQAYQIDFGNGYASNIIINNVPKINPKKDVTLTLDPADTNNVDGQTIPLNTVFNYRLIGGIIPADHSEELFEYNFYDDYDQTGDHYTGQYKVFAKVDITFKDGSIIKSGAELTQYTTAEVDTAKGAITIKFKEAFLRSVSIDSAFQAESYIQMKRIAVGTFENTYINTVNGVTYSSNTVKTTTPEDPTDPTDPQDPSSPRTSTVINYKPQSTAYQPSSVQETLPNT

B1: マウスJ鎖 (J鎖のみを発現する植物) (other, mouse, UniProt P01592 22-159, looked up)
chain: GDDEATILADNKCMCTRVTSRIIPSTEDPNEDIVERNIRIVVPLNNRENISDPTSPLRRNFVYHLSDVCKKCDPVEVELEDQVVTATQSNICNEDDGVPETCYMYDRNKCYTTMVPLRYHGETKMVQAALTPDSCYPD
notes: Tested as extract of tobacco plants that express J chain only, or by co-expression

Tests used:
[1] = target: T1, 精製連鎖球菌抗原(SA)I/II; assay: competition ELISA on purified SA I/II; competitor 125I-labelled mouse Guy's13
[2] = target: T1, 精製連鎖球菌抗原(SA)I/II; assay: ELISA on SA I/II, plant extracts

| Molecule | 標識マウスGuy's13の阻害% [1] [%] | binding result [2] |
| --- | --- | --- |
| 植物G1/A (Guy's13可変領域−(IgG1 CH1)−(IgA CH2)−(IgA CH3) ハイブリッド重鎖とカッパ鎖) (from UniProt P01878 101-344) (antibody) | < 85 |  |
| 植物G2/A (var−γ1−γ2−α2−α3ドメインを含むIgG/IgAハイブリッド重鎖のGuy's13) (from UniProt P01878 101-344) (antibody) | < 85 |  |
| 植物G13 (本来のガンマ重鎖のGuy's13IgG、タバコで発現) (antibody) | < 85 |  |
| B1 |  | no binding |
